How the values were obtained:
[1] = biological target: T1, Drosophila melanogaster peptidoglycan-recognition protein-SA (PGRP-SA), T7-tagged (D. melanogaster, UniProt Q9VYX7 27-203); assay: ELISA; […]) or 5% BSA ([…]; conditions: both partners purified
T1 construct: also called PRGP-SA
T1 sequence (looked up): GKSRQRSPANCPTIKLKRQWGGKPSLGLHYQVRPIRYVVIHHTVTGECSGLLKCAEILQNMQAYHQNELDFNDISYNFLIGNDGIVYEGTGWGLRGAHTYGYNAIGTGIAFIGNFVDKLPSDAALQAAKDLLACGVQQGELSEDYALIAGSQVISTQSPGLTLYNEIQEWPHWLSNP

[2] = biological target: T2, human recombinant PGRP-S (also called PGLYRP1) (human, UniProt O75594 22-196); assay: ELISA; […]) or 5% BSA ([…]; conditions: both partners purified
T2 construct: also called PRGP-S; human PGRP-SA ortholog
T2 sequence (looked up): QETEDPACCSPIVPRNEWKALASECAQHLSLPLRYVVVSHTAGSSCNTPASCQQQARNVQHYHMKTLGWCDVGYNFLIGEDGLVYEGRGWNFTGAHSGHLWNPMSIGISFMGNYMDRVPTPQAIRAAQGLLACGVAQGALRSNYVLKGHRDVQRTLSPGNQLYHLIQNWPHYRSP

B1: PA20, 20 kDa subunit of anthrax toxin Protective Antigen (PA83) (domain or fragment)
chain: EVKQENRLLNESESSSQGLLGYYFSDLNFQAPMVVTSSTTGDLSIPSSELENIPSENQYFQSAIWSGFIKVKKSDEYTFATSADNHVTMWVDDQEVINKASNSNKIRLEKGRLYQIKIQYQRENPTEKGLDFKLYWTDSQNKKEVISSDNLQLPELKQKSSNS
notes: also called pelB-PA20-6His
binding result [1]: binds | binding result [2]: binds
